Reference: patent US20070054848

Target: recombinant full-length p21 (1-164 in SEQ ID NO: 23)
Sequence (chain, as listed by the source): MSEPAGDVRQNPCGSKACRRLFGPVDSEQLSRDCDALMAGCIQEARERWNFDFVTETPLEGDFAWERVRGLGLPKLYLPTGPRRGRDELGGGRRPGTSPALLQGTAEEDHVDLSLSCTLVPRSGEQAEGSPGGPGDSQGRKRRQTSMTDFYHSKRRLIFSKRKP

B1: Rho kinase fragment (aa 1-543, Upstate Biotechnology) (protein)
chain: MSRPPPTGKMPGAPETAPGDGAGASRQRKLEALIRDPRSPINVESLLDGLNSLVLDLDFPALRKNKNIDNFLNRYEKIVKKIKGLQMKAEDYDVVKVIGRGAFGEVQLVRHKASQKVYAMKLLSKFEMIKRSDSAFFWEERDIMAFANSPWVVQLFYAFQDDRYLYMVMEYMPGGDLVNLMSNYDVPEKWAKFYTAEVVLALDAIHSMGLIHRDVKPDNMLLDKHGHLKLADFGTCMKMDETGMVHCDTAVGTPDYISPEVLKSQGGDGFYGRECDWWSVGVFLYEMLVGDTPFYADSLVGTYSKIMDHKNSLCFPEDAEISKHAKNLICAFLTDREVRLGRNGVEEIRQHPFFKNDQWHWDNIRETAAPVVPELSSDIDSSNFDDIEDDKGDVETFPIPKAFVGNQLPFIGFTYYRENLLLSDSPSCRENDSIQSRKNEESQEIQKKLYTLEEHLSNEMQAKEELEQKCKSVNTRLEKTAKELEEEITLRKSVESALRQLEREKALLQHKNAEYQRKADHEADKKRNLENDVNSLKDQLEDL
- Rho-kinase activity toward S6 kinase substrate peptide ([γ-32P] ATP, scintillation counting): the estimated IC50 value was 1.43 nM
